Measurements from US20190233512A1 (SUTRO BIOPHARMA, published 2019).

Assays:
[1] = target: FOLR1 on FOLR1-positive Igrov1 cells (UniProt P15328 25-234, limits assumed); assay: cell-based or functional assay
[2] = target: T1, Murine folate receptor alpha (mouse, UniProt P35846 25-232); assay: FACS, CHO-mFOLR1 cells
T1 construct: Stably expressed on CHO cells (CHO-mFOLR1); also called mouse FOLR1; CHO-mFOLR1

[3] = target: T2, Human folate receptor alpha (hFOLR1) (human, UniProt P15328 25-234); assay: FACS, CHO-hFOLR1 cells
T2 construct: Stably expressed on CHO cells (CHO-hFOLR1) for flow cytometry; endogenous on FOLR1-positive KB and Igrov1 cells in the killing assay; also called human FOLR1; FolRα
Procedure: CHO cells were transfected to stably express human (CHO-hFOLR1), cynomolgus (CHO-cFOLR1), or mouse (CHO-mFOLR1) target molecule FOLR1 on the cell surface. Parental CHO cells were used as a negative control to determine background binding levels. Parental CHO and stably transfected CHO-hFOLR1, CHO-cFOLR1, and CHO-mFOLR1 cells were cultured in Ham's F-12: high glucose DMEM (50:50) (Corning, Cellgro-Mediatech) supplemented with 10% heat-inactivated fetal bovine serum (Corning, Cellgro-Mediatech), 1% Penicillin/Streptomycin (Corning, Cellgro-Mediatech) and 2 mmol/L-glutamax (Life Technology).
A mixture of fluoresecent-labeled parental CHO cells and unlabeled CHO-hFOLRlcells were prepared as follows. Parental CHO cells were washed twice in PBS and incubated in PBS containing with 1 nM CellTrace™ Oregon Green488® (Life Technologies) at 37° C. for 30 minutes. Labeled parental CHO cells were then washed 2× with Ham's F-12 media and 2× with FACS buffer (PBS with 1% bovine serum albumin). Unlabeled CHO-hFOLR1 cells were similarly washed and prepared. Labeled parental CHO and unlabeled CHO-hFOLR1 cells were combined at 1:1 ratio and seeded at 50 μL per well (200,000 cells per well) in 96 well polypropylene plates. Cells were mixed with 50 μL of test antibodies (i.e., anti-FOLR1 variants) serially diluted in FACS buffer and incubated on ice for 60 mins. Cells were washed with FACS buffer and incubated on ice for 60 mins with 100 μL FACS buffer containing 2.5 μg/mL R-Phycoerythrin-conjugated goat anti-Human IgG (Jackson ImmunoResearch Laboratories, West Grove, Pa.). Cells were washed twice with FACS buffer, fixed in 2% paraformaldehyde in PBS (Santa Cruz Biotechnology; Dallas, Tex.) for 10 mins on ice in the dark, and analyzed using the BD LSR II Flow Cytometer (BD Biosciences; San Jose, Calif.). Data were analyzed using FlowJo® software (FlowJo, LLC; Ashland, Oreg.) to determine mean fluorescence intensities. Binding constants were calculated using the statistical software, GraphPad Prism (GraphPad Software; La Jolla, Calif.) using the nonlinear regression equation, one site-specific binding with Hill slope. Secondary antibody alone was used as a control, in addition to measuring non-specific antibody binding to CHO parental cells.

[4] = target: T3, Cynomolgus folate receptor alpha (cynomolgus monkey, UniProt P15328 25-234 (human entry)); assay: FACS, CHO-cFOLR1 cells
T3 construct: Stably expressed on CHO cells (CHO-cFOLR1); also called cynomolgus FOLR1; CHO-cFOLR1
T3 sequence (P15328 other isoform, or with tags, fused parts or gaps limits assumed): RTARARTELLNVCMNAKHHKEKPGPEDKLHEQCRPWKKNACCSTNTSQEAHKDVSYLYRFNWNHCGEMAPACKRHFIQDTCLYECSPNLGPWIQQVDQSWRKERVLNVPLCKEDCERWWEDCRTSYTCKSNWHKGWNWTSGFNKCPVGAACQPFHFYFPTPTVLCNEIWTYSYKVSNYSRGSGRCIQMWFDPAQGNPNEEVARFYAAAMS

T1 sequence (P35846 25-232 limits assumed): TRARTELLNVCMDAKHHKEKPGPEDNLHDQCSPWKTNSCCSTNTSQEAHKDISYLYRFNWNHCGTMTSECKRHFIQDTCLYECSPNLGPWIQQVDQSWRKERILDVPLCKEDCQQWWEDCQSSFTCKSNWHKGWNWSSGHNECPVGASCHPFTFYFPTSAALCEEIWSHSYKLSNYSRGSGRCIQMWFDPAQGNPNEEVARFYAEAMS
T2 sequence (P15328 25-234 limits assumed): as the sequence (P15328 other isoform, or with tags, fused parts or gaps limits assumed) above, with T2I, R4W, K37R, R117Q, P146A, Y171H counted along it
FOLR1 on FOLR1-positive Igrov1 cells, sequence (P15328 25-234 limits assumed): as the sequence (P15328 other isoform, or with tags, fused parts or gaps limits assumed) above, with T2I, R4W, K37R, R117Q, P146A, Y171H counted along it

| Binder | Igrov 2° Antibody Cell Killing, Nb-SC239: EC50 [1] [nM] | Igrov 2° Antibody Cell Killing, Nb-SC239: span (%) [1] [%] | Bmax [2] [MFI] | Bmax [3] [MFI] | Bmax [4] [MFI] |
| --- | --- | --- | --- | --- | --- |
| SRP2060-E10 (antibody, V domains shown) VH: EVQLLESGGGLVQPGGSLRLSCAFSGFSLSTFGMGVGWVRQAPGKGLEWVSHIWWDDDKYYHPALKGRFTISKDNSKNTVYLQMNSLRAEDTAVYYCGRNHFPHYYGSSHWYFNVWGQGTTVTVSS VL: EIVMTQSPATLSLSPGERATLSCKASQDINSYLSWYQQKPGQAPRLLIYRANRLVDGIPARFSGSGSGTDYTLTISSLEPEDFAVYYCLQYDEFPYTFGGGTKVEIK | 0.061 | 68 | – | – | – |
| SRP2060-E05 (antibody, V domains shown) VH: EVQLLESGGGLVQPGGSLRLSCAFSGFSLSTFGMGVGWVRQAPGKGLEWVSHIWWDDDKYYHPALKGRFTVSKDNSKNTVYLQMNSLRAEDTAVYYCGRNHFPHYYGSSHWYFNVWGQGTTVTVSS VL: EIVMTQSPATLSLSPGERATLSCKASQDINSYLSWYQQKPGQAPRLLIYRANRLVDGIPARFSGSGSGTDYTLTISSLEPEDFAVYYCLQYDEFPYTFGGGTKVEIK | 0.22 | 71 | – | – | – |
| SRP1848-F02 (antibody, V domains shown, VH/VL only; Fc-bearing IgG format with trastuzumab LC, HIS/FLAG-tagged, cell-free expressed; constant regions not tied; also called Antibody 38) VH: EVQLVESGGGLVQPGGSLRLSCAASGFNIRTYSIHWVRQAPGKGLEWVGSIFPNDGTTDYADSVKGRLTISADTSKNTAYLQMNSLRAEDTAVYYCARGSWSWQAGYGYYLDYWGQGTLVTVSS VL: not shown | – | – | 2740 | 25700 | 14900 |
| SRP1848-F05 (antibody, V domains shown, VH/VL only; Fc-bearing IgG format with trastuzumab LC, HIS/FLAG-tagged, cell-free expressed; constant regions not tied; also called Antibody 40) VH: EVQLVESGGGLVQPGGSLRLSCAASGFNISKSSIHWVRQAPGKGLEWVGEIYPNDGSTDYADSVKGRFTISADTSKNTAYLQMNSLRAEDTAVYYCARGSWAWRSGYSYFLDYWGQGTLVTVSS VL: not shown | – | – | 5100 | 27200 | 24700 |
| SRP1848-F07 (antibody, V domains shown, VH/VL only; Fc-bearing IgG format with trastuzumab LC, HIS/FLAG-tagged, cell-free expressed; constant regions not tied; also called Antibody 42) VH: EVQLVESGGGLVQPGGSLRLSCAASGFNISNHSIHWVRQAPGKGLEWVGEIYPNDGITDYADSVKGRFTISADTSKNTAYLQMNSLSAEDTAVYYCARGSWDWRSGYSYYLDYWGQGTLVTVSS VL: not shown | – | – | 1390 | 27400 | 18700 |
| SRP1848-F09 (antibody, V domains shown, VH/VL only; Fc-bearing IgG format with trastuzumab LC, HIS/FLAG-tagged, cell-free expressed; constant regions not tied; also called Antibody 44) VH: EVQLVESGGGLVQPGGSLRLSCAASGFNISNHYIHWVRQAPGKGLEWVGGISPLDGYTDYADSVKGRFTISADTSKNTAYLQMNSLRAEDTAVYYCARGAWSWRSGYGYYIDYWGQGTLVTVSS VL: not shown | – | – | 1670 | 23800 | 24200 |
| SRP1848-F10 (antibody, V domains shown, VH/VL only; Fc-bearing IgG format with trastuzumab LC, HIS/FLAG-tagged, cell-free expressed; constant regions not tied; also called Antibody 45) VH: EVQLVESGGGLVQPGGSLRLSCAASGFNISNNSIHWVRQAPGKGLEWVGSIFPNDGYTDYADSVKGRFTISADTSKNTAYLQMNSLRAEDTAVYYCARGSWFWRSGYGYYLDYWGQGTLVTVSS VL: not shown | – | – | 1740 | 25600 | 20700 |
| SRP1848-F11 (antibody, V domains shown, VH/VL only; Fc-bearing IgG format with trastuzumab LC, HIS/FLAG-tagged, cell-free expressed; constant regions not tied; also called Antibody 46) VH: EVQLVESGGGLVQPGGSLRLSCAASGFNISNNYIHWVRQAPGKGLEWVGGITPIDGNTDYADSVKGRFTISADTSMNTAYLQMNSLRAEDTAVYYCARGSWYWRAGYGYYLDYWGQGALVTVSS VL: not shown | – | – | 1760 | 26800 | 21800 |
| SRP1848-G01 (antibody, V domains shown, VH/VL only; Fc-bearing IgG format with trastuzumab LC, HIS/FLAG-tagged, cell-free expressed; constant regions not tied; also called Antibody 47) VH: EVQLVESGGGLVQPGGSLRLSCAASGFNISRHSIHWVRQAPGKGLEWVGWIAPNDGSTDYADSVKGRFTISADTSKNTAYLQMNSLRAEDTAVYYCARGSWAWRSGYSYFLDYWGQGTLVTVSS VL: not shown | – | – | 1990 | 27400 | 20900 |
| SRP1848-G03 (antibody, V domains shown, VH/VL only; Fc-bearing IgG format with trastuzumab LC, HIS/FLAG-tagged, cell-free expressed; constant regions not tied; also called Antibody 48) VH: EVQLVESGGGLVQPGGSLRLSCAASGFNISTYYIHWVRQAPGKGLEWVGGITPSDGFTDYADSVKGRSTISADTSKNTAYLQMNSLRAEDTAVYYCARGSWSWPSGHGYFLDYWGQGTLVTVSS VL: not shown | – | – | 2220 | 26400 | 19200 |
| SRP1848-H01 (antibody, V domains shown, VH/VL only; Fc-bearing IgG format with trastuzumab LC, HIS/FLAG-tagged, cell-free expressed; constant regions not tied; also called Antibody 55) VH: EVQLVESGGGLVQPGGSLRLSCAASGFNIRTQSIHWVRQAPGKGLEWIGDIFPIDGITDYADSVKGRFTISADTSKNTAYLQMNSLRAEDTAVYYCARGSWSWPSGMDYYLDYWGQGTLVTVSS VL: not shown | – | – | 3950 | 27000 | 17200 |
